From US20230374148A1, “BINDING MOLECULES THAT MULTIMERISE CD45” (UCB BIOPHARMA SRL, priority 2020, published 2023) come the findings set out here.

Experiment [1] concerns M1 macrophages. The experiment is described as follows: Caspase-3/7 induction, IncuCyte, M1. The class given is cell-based, human. Conditions: over 6 days, BYbe 250-2 nM, Camptothecin, Staurosporine 5 μM. As to the method:
Human PBMC derived from blood leukocyte platelet-apheresis cones (NHSBT Oxford) were banked as frozen aliquots. Prior to an assay being performed, 2 vials of frozen cells, each containing 5×10^7 cells in 1 ml, were thawed in a 37° C. water bath and then added to 50 ml complete media (RPMI 1640+2 mM GlutaMAX+1% Pen/Strep, all previous supplied by Invitrogen, +10% Fetal Bovine Serum (FBS), Sigma Aldrich). Cells were spun (500 g, 5 min, at RT) and re-suspended in 30 ml complete media to wash and spun again. Cells were resuspended in 20 ml MACS buffer (PBS, pH 7.2, 0.5% bovine serum albumin (BSA), and 2 mM EDTA, Sigma Aldrich) and counted on a ChemoMetec NucleoCounter NC-3000 to determine concentration and viability. PBMCs from one donor (UCB-Cones 802) was used in this assay. Monocyte isolation was performed using the Pan Monocyte Isolation Kit (Miltenyi Biotec, cat no. 130-096-537) and LS columns (Miltenyi Biotec, cat no 130-042-401) according to manufacturer's instructions. 100 μl of cells were removed and stored on ice to check monocyte purity post isolation. Isolated cells were stained with BV421 mouse anti-human CD14 (BD Biosciences, cat no. 563743) to check for purity of monocytes using FACS. M-CSF (Sigma Aldrich, cat no. SRP3110) and GM-CSF (R&D Systems, cat no. 215-GM/CF) were prepared at 100 μg/ml. Cells were prepared in M1 media (complete media+50 ng/ml GM-CSF) or M2 media (complete media+50 ng/ml M-CSF) at a concentration of 2.5×10^5 cells/ml. 200 μl cells were plated into two Corning 96 well Black polystyrene microplates (Sigma Aldrich) and incubated at 37° C., 5% CO2. Following a 3-day incubation at 37° C., 5% CO2, the plate was spun (500 g, 5 min, RT), buffer was aspirated, the cells were washed once with PBS and then resuspended in 200 μL of M1 media or M2 media. […] The caspase dye was measured with the green laser (350 ms) and the cytotox dye was measured with a red laser (650 ms). The green dye signal was analysed using Incucyte® Zoom2016B. […]

The target of experiment [2] is T1, CD45 ECD (Homo sapiens, UniProt P08575).
T1 construct: extracellular domain of CD45 (UniProtKB—P08575, residue positions 225-573); TEV cleavage site (C); 10-His tag (C); made in house; host or cells: HEK293
T1 sequence (P08575 225-573): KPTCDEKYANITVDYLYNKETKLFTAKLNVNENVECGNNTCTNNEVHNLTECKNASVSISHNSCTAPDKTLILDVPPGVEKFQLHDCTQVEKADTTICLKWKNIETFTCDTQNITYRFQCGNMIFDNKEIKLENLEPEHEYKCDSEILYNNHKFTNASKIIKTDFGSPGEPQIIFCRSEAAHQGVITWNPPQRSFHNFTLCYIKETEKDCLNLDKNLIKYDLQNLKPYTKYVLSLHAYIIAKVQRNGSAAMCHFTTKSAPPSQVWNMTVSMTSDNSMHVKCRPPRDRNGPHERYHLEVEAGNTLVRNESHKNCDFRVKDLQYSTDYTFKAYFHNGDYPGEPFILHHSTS
In words: Sedimentation velocity, analytical ultracentrifuge. In kind it is binding. Conditions: for Experimental S value: molar 1:1 mixture. On the procedure:
CD45 ECD and 4133-6294 BYbe were mixed in a molar ratio of 1:1 and incubated for 1 hour at room temperature. The molar ratio was determined using the predicted mass of 4133-6294 BYbe at 73.5 kDa and the mass of CD45 ECD as determined by mass photometry at 62 kDa.
The CD45 ECD-4133-6294 BYbe mixture, CD45 ECD only or 4133-6294 BYbe only were loaded into cells with 2-channel charcoal-epon centrepieces with 12 mm optical path length and glass quartz glass windows. The corresponding buffer was loaded into the reference channel of each cell (the instrument functions like a dual beam spectrometer). Those loaded cells were then placed into an AN-60Ti analytical rotor, loaded into a Beckman-coulter Optima analytical ultracentrifuge and brought to 20° C. The rotor was then brought to 3,000 rpm and the samples were scanned at 280 nm to confirm proper cell loading and appropriate adjustment of the laser, via the laser delay setting. The rotor was then brought to the final run speed of 50,000 rpm. Scans were recorded every 20 seconds for 8 hours. Radial scans ranged from 5.75 to 7.25 cm.
The data were analysed using the c(s) method developed by peter Shuck at the N.I.H and implemented in his analysis program SEDFIT version 14.6e. In this approach many raw data scans directly fitted (36,000 data points for each sample in this case) to derive the distribution of sedimentation coefficients, while modelling the influence of diffusion on the data in order to enhance the resolution. The method works by assigning a diffusion coefficient to each value of sedimentation coefficient based on an assumption that all species have the same overall hydrodynamic shape (with shape defined by the frictional coefficient relative to that for a sphere, f/f0). The f/f0 values were varied to find the best overall fit of the data for each sample. A maximum entropy regularization probability of 0.95 was used and time invariant noise was removed. The analysis was performed using the standard solvent model.

B1: 4133-6294 BYbe: anti-CD45 BYbe (Fab-scFv): 4133 Fab HC-G4S linker-6294 scFv heavy chain paired with 4133 light chain (antibody)
heavy: QEQLVESGGGLVQPEGSLTLTCTASGFSFSGNYYMCWVRQAPGKGLEWIGCLYTGSSGSTYYASWAKGRFTISKTSSTTVTLQMTSLTAADTATYFCARDLGYEIDGYGGLWGQGTLVTVSSGQPKAPSVFPLAPCCGDTPSSTVTLGCLVKGYLPEPVTVTWNSGTLTNGVRTFPSVRQSSGLYSLSSVVSVTSSSQPVTCNVAHPATNTKVDKTVAPSTCSKPGGGGSGGGGSEVQLVESGAELARPGASVKMSCKASGYTFTSYTMHWVKQRPGQCLEWIGYINPSSGYTEYNQKFKDKTTLTADKSSSTAYLQLSSLTSEDSAVYYCARVGDGFYPSWLAYWGQGTLVTVSSGGGGSGGGGSGGGGSGGGGSDIQMTQSPKFLLVSAGDRVTITCKASQSVRNDVAWYQQKPGQSPKLLIFYASKRYTGVPDRFTGSGYGTDFTFTISTVQAEDLAVYFCQQDYSSPTTFGCGTKLEIK
light: AQVLTQTPSPVSAVVGGTVSISCQASQSVYNNNNLSWYQQKPGQPPKLLIYDASKLASGVPSRFKGSGSGTQFTLTISGVQCDDAATYYCLGGYYSSGWYFAFGGGTKVVVKRTPVAPTVLIFPPAADQVATGTVTIVCVANKYFPDVTVTWEVDGTTQTTGIENSKTPQNSADCTYNLSSTLTLTSTQYNSHKEYTCKVTQGTTSVVQSFNRGDC
B1: the “levels of Caspase-3/7” value in experiment [1] is “in-line with NegCtrl BYbe-treated and untreated macrophages”. Also, the “Experimental S value” in experiment [2] (CD45 1:1 BYbe complex) amounted to 6.9 S; in experiment [2] (CD45 2:1 BYbe complex), 7.15 S; in experiment [2] (CD45 2:2 BYbe complex), 8.78 S; in experiment [2] (CD45 3:3 BYbe complex), 10.04 S; in experiment [2] (CD45 4:3 BYbe complex), 11.12 S; in experiment [2] (CD45 4:4 BYbe complex), 13.3 S. Also, the “Percentage of area under the curve” value in experiment [2] (CD45 1:1 BYbe in molar 1:1 mixture) is on record as 11.99%; in experiment [2] (CD45 2:2 BYbe in molar 1:1 mixture), 37.7%; in experiment [2] (CD45 3:3 BYbe in molar 1:1 mixture) it was 35.7%; in experiment [2] (CD45 4:4 BYbe in molar 1:1 mixture) it was 3.46%; in experiment [2] (CD45 (uncomplexed) in molar 1:1 mixture of CD45 ECD and BYbe) it was 9.21%.
